Consider 1 protein from US20240293579A1, “Composition Comprising Trim31 and Rhbdf2 for Treatment of NAFLD/NASH” (CHONGQING MEIPULAN TECHNOLOGY CO., LTD, priority 2021, published 2024).

The data set has as its target T1, human RHBDF2, full-length, HA-tagged (RHBDF2-HA), Q6PJF5.
T1 chain: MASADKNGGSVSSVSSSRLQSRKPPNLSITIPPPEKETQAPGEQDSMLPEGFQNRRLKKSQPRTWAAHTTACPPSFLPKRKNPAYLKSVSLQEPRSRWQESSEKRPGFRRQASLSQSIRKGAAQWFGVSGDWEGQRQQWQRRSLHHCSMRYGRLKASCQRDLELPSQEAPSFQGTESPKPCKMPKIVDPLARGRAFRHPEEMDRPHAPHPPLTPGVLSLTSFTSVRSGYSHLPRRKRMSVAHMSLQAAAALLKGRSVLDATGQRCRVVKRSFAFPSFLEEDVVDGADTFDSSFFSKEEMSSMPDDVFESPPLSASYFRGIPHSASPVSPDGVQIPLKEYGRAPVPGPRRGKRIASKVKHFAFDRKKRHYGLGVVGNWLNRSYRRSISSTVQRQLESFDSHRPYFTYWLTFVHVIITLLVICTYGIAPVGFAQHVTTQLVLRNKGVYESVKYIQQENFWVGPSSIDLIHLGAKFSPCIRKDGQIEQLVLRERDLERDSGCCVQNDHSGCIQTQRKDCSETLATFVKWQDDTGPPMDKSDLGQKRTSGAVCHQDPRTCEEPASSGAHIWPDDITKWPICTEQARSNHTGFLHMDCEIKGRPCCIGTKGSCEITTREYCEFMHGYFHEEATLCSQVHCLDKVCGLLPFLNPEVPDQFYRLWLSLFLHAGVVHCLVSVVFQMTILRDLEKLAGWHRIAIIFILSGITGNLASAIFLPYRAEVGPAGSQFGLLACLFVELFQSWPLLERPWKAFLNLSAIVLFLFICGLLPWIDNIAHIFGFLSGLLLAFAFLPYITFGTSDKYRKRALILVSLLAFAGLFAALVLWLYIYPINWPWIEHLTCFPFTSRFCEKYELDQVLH

B1: human TRIM31, full-length wild type, Flag-tagged (TRIM31-Flag WT) (protein)
chain: MASGQFVNKLQEEVICPICLDILQKPVTIDCGHNFCLKCITQIGETSCGFFKCPLCKTSVRKNAIRFNSLLRNLVEKIQALQASEVQSKRKEATCPRHQEMFHYFCEDDGKFLCFVCRESKDHKSHNVSLIEEAAQNYQGQIQEQIQVLQQKEKETVQVKAQGVHRVDVFTDQVEHEKQRILTEFELLHQVLEEEKNFLLSRIYWLGHEGTEAGKHYVASTEPQLNDLKKLVDSLKTKQNMPPRQLLEDIKVVLCRSEEFQFLNPTPVPLELEKKLSEAKSRHDSITGSLKKFKDQLQADRKKDENRFFKSMNKNDMKSWGLLQKNNHKMNKTSEPGSSSAGGRTTSGPPNHHSSAPSHSLFRASSAGKVTFPVCLLASYDEISGQGASSQDTKTFDVALSEELHAALSEWLTAIRAWFCEVPSS
Regarding B1, the “polyubiquitination of Rhbdf2 with single-lysine ubiquitin constructs (K48O, K63O, K33O, K6O, K29O, K27O)” value was “Trim31-mediated increase in polyubiquitination of Rhbdf2 could be greatly observed in the presence of K48-loading vector, but not with other vectors”.
